Data reported in patent US20110086026A1 (ROCHE PALO ALTO, published 2011).

T1: hIL-4Rα:hFc chimeric protein (R&D Systems, UK) (human, UniProt P24394 26-232)
T1 construct: Bought; not shown: human Fc (hFc) of the bought chimera
T1 sequence (looked up): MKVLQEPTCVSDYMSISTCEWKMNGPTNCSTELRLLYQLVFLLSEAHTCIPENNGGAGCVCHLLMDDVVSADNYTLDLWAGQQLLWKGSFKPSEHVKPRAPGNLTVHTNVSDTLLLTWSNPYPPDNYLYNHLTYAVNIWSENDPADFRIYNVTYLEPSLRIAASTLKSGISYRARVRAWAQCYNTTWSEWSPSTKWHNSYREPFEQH

T2: extracellular domain of hIL-13Rα1 cleaved from hIL-13Rα1:hFc chimeric protein (human, UniProt P78552 22-343)
T2 construct: extracellular domain; also called Cleaved hIL-13Rα1 molecules (MW 40 kDa)
T2 sequence (looked up): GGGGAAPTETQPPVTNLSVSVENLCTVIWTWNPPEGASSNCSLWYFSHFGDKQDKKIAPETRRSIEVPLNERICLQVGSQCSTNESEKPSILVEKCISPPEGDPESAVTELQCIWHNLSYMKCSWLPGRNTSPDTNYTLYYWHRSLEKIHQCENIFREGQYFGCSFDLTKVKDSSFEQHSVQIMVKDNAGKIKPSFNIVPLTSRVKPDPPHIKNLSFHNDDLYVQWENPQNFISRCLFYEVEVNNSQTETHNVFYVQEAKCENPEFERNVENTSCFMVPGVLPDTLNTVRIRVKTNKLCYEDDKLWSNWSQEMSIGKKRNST

T3: hIL-13Rα2:hFc chimeric protein (R&D Systems, UK) (human, UniProt Q14627 27-343)
T3 construct: Bought; not shown: human Fc (hFc) of the bought chimera
T3 sequence (looked up): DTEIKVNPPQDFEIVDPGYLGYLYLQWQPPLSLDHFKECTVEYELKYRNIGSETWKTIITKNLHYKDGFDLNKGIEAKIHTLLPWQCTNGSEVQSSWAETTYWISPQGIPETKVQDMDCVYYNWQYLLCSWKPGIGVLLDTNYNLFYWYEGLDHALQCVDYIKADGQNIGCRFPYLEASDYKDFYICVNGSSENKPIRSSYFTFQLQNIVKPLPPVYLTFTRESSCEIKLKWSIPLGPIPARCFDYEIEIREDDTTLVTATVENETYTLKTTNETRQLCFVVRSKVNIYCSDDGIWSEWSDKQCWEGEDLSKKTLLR

T4: hIL-13Rα1:hFc chimeric protein (R&D Systems, UK) (human, UniProt P78552 22-343)
T4 construct: extracellular domain; Bought; also called chimeric hIL-13Rα1:hFc; not shown: human Fc (hFc) of the bought chimera
T4 sequence (looked up): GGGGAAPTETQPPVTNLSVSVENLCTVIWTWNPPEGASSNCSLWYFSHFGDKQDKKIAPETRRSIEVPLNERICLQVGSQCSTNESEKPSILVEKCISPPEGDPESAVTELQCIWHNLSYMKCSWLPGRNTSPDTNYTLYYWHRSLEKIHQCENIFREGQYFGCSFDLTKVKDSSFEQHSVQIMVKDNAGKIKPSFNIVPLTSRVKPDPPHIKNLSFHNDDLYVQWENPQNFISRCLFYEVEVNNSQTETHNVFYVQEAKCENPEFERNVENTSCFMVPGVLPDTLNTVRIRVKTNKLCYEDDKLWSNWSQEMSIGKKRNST


Legend:
[1] = molecular target: T1, hIL-4Rα:hFc chimeric protein (R&D …); assay: ELISA, immobilized hIL-4Rα:hFc, detection with anti-human kappa-POD, OD 405
Method: (§1) Chimeric proteins hIL-13Rα2:hFc and hIL-4Rα:hFc (R&D Systems, UK) were dissolved in PBS (1 μg/ml) and allowed to adsorb to microtiter plates (NUNC Maxisorb) by incubation over night at 4° C. After washing the plates with washing buffer (WB=0.9% NaCl; 0.1% Tween® 20) unspecific binding sites were blocked by addition of 100 μl incubation buffer (IB=PBS with 1% crotein C and 0.1% Tween® 20) and incubation for 30 min at room-temperature (RT). Then serially diluted HuMab and control antibodies (100 μl/well; dilutions in IB) were added and incubated for 1 hour at RT. The plates were again washed and bound antibody was detected by incubation with peroxidase conjugated rabbit anti-human kappa (DAKO, Denmark) in a final dilution of 1:500 in IB. After incubation for 1 h at RT and a subsequent washing step, the plates were developed with ready-to-use ABTS® solution (Roche Diagnostics GmbH, DE) at RT in the dark. Absorbance was measured at 405 nm after absorbance of the highest concentration reached a sufficient OD.

[2] = molecular target: T2, extracellular domain of hIL-13Rα1 …; assay: SPR Biacore 3000, CM5 chip, HuMab captured by anti-hFcγ, cleaved hIL-13Rα1 as analyte, bivalent analyte model (kd1)
Method: (§2) In these experiments, the affinity of the original IgG1 derived from hybridoma was compared with the affinities of the recombinant variant IgG1-Ala-Ala. For interaction analysis, a Biacore 3000 instrument was used. Running and reaction buffer was HBS-P (10 mM HEPES, 150 mM NaCl, 0.005% polysurfactant P, pH 7.4) at 25° C. Capturing antibody molecules (anti-hFcγ) were amine-coupled at a concentration of 20 μg/ml at a flow rate of 5 μl/min for 20 minutes. HuMabs were injected at concentrations of 10 μg/ml at a flow rate of 10 μl/min for 1 minute. Cleaved hIL-13 Rα1 molelcules (analyte) were injected for five minutes at eight concentrations between 1.56 nM and 200 nM and washed with HBS-P for five minutes. Regeneration of the surface was accomplished by two injections of 100 mM HCl for 1 min each. The chip, assay format and sequence of injections and kinetic data correspond to the description in Table 4. Kinetic data were calculated by fitting kinetic data to a bivalent analyte binding model.

[3] = molecular target: T2, extracellular domain of hIL-13Rα1 …; assay: SPR Biacore 3000, CM5 chip, HuMab captured by anti-hFcγ, cleaved hIL-13Rα1 as analyte, bivalent analyte model (ka1)
Method: as §2

[4] = molecular target: T2, extracellular domain of hIL-13Rα1 …; assay: SPR Biacore 3000, CM5 chip, HuMab captured by anti-hFcγ, cleaved hIL-13Rα1 as analyte, bivalent analyte model
Method: as §2

[5] = molecular target: T3, hIL-13Rα2:hFc chimeric protein (R&D …); assay: ELISA, immobilized hIL-13Rα2:hFc, detection with anti-human kappa-POD, OD 405
Method: as §1

[6] = molecular target: FcγRIIIa (CD16) on Natural Killer (NK) cells (UniProt P08637); assay: FACS on NK cells in PBMC, maximum binding at 20 µg/ml
Chain of FcγRIIIa (CD16) on Natural Killer (NK) cells (P08637 17-254 limits assumed): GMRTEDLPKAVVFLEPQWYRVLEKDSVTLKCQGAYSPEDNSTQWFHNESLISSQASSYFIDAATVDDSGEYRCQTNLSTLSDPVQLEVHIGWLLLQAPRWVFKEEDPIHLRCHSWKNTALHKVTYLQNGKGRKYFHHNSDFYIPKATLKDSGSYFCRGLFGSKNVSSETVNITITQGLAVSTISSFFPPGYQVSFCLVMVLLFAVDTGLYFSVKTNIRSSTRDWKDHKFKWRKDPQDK

[7] = molecular target: FcγRIIIa (CD16) on Natural Killer (NK) cells (UniProt P08637); assay: FACS on NK cells in PBMC, 20 µg/ml, with 20 µg/ml of the blocking anti-CD16 clone 3G8 as competitor
[8] = molecular target: T4, hIL-13Rα1:hFc chimeric protein (R&D …); assay: ELISA, immobilized hu IL-13Ra1:Fc, detection with anti-human kappa-POD, OD 405

binding result [1]	koff [2] [s⁻¹]	kon [3] [M⁻¹ s⁻¹]	Kd [4] [nM]	binding result [5]	EC50 (read off the curve) [8] [nM]	Binder	Bmax (MFI) [6] [MFI]	Bmax (MFI) [7] [MFI]
no binding (tested: 3.3 nM)	0.00036	133000	2.7	no binding (tested: 3.3 nM)	~0.4	HuMab LC5002-005 (antibody, V domains shown, Only the variable domains are tied to this antibody; also called hu-MAB<h-IL-13Ralpha>LC.5002-005 (DSM ACC2711)) VH: EVQVLDSGGGLVQPGGSLRLSCTASGFTFRLYTMSWVRQTPGRGLEWVSGISGSGLSTYFADSVKGRFTISRDNSKNTVYLQMNSLRAEDTAVYYCAKEGDWIYFDSWGQGTLVIVSS VL: DIQMTQSPSSLSASVGDRVTITCRASQGISSWLAWYQQKPEKAPKSLIYAASSLQSGVPSRFSGSGSGTDFTLTISSLQPEDFATYYCQQYNSHPPTFGQGTKLEIK	581	260
no binding (tested: 3.3 nM)	–	–	–	no binding (tested: 3.3 nM)	~0.4	HuMab LC5002-003 (antibody, V domains shown, Human IgG1 kappa from a HuMab mouse hybridoma; Only the variable domains are tied to this antibody; also called LC50002-003; hu-MAB<h-IL-13Ralpha>LC.5002-003 (DSM ACC2710)) VH: EVQLLESGGDLIQPGGSLRLSCAASGFTFNIYAMNWVRQAPGKGLEWVSVISGRGITTYYADSVKGRFTISRDNSKNTLYLQMDSLRAEDTAVYYCAKGSSYWTDFDYWGQGTLVTVSS VL: DIQMTQSPSSLSASVGDRVTITCRASQGISSWLAWYQQKPEKAPKSLIYAASSLQSGVPSRFSGSGSGTDFTLTISSLQPEDFATYYCQQYNSYPWTFGQGTKVEIK	–	–
